Assay results taken from publication PMC10602876, “Global profiling of ribosomal protein acetylation reveals essentiality of acetylation homeostasis in maintaining ribosome assembly and function” (Nucleic Acids Research, 2023).

B1: 50S large subunit ribosomal protein L7/L12, wild type, His-tagged (natural protein, S. Typhimurium, UniProt P0A299 1-121, looked up)
chain: MSITKDQIIEAVSAMSVMDVVELISAMEEKFGVSAAAAVAVAAGPAEAAEEKTEFDVILKAAGANKVAVIKAVRGATGLGLKEAKDLVESAPAALKEGVSKDDAEALKKSLEEAGAEVEVK
notes: 50S ribosomal protein L7/L12 (RplL), S. Typhimurium strain 14028S, gene amplified from the genomic DNA; The r-protein genes seem to have been cloned into pSUMO3; also called WT L7/L12; RplL; source: E. coli BL21, purified (Ni-NTA); not shown: His6, C-terminal, kept
B2: L7/L12 K70Q, His-tagged (natural protein)
chain: MSITKDQIIEAVSAMSVMDVVELISAMEEKFGVSAAAAVAVAAGPAEAAEEKTEFDVILKAAGANKVAVIQAVRGATGLGLKEAKDLVESAPAALKEGVSKDDAEALKKSLEEAGAEVEVK
notes: 50S ribosomal protein L7/L12 (RplL), S. Typhimurium strain 14028S; Acetylation mimic; same construct as m2 with the substitution; source: E. coli, purified (Ni-NTA); not shown: His6, C-terminal, kept
B3: L7/L12 K70R, His-tagged (natural protein)
chain: MSITKDQIIEAVSAMSVMDVVELISAMEEKFGVSAAAAVAVAAGPAEAAEEKTEFDVILKAAGANKVAVIRAVRGATGLGLKEAKDLVESAPAALKEGVSKDDAEALKKSLEEAGAEVEVK
notes: 50S ribosomal protein L7/L12 (RplL), S. Typhimurium strain 14028S; Mimic of the non-acetylated form; same construct as m2 with the substitution; source: E. coli, purified (Ni-NTA); not shown: His6, C-terminal, kept
B4: L7/L12 K65R, His-tagged (natural protein)
chain: MSITKDQIIEAVSAMSVMDVVELISAMEEKFGVSAAAAVAVAAGPAEAAEEKTEFDVILKAAGANRVAVIKAVRGATGLGLKEAKDLVESAPAALKEGVSKDDAEALKKSLEEAGAEVEVK
notes: as for B3
B5: L7/L12 K65Q, His-tagged (natural protein)
chain: MSITKDQIIEAVSAMSVMDVVELISAMEEKFGVSAAAAVAVAAGPAEAAEEKTEFDVILKAAGANQVAVIKAVRGATGLGLKEAKDLVESAPAALKEGVSKDDAEALKKSLEEAGAEVEVK
notes: as for B2

Each binder was assayed against T1, Elongation factor EF-Tu, His-tagged, biotinylated (S. Typhimurium, UniProt P0A1H5 1-394, biotin (site not stated)) (assay: BLI; printed as thin-film interferometry (TFI), GatorPrime label-free analyzer; biotinylated EF-Tu loaded on the sensors; L7/L12 or mutants in solution at 12.5, 6.25, 3.125, 1.563, 0.781 and 0.391 uM in binding buffer at pH 7.4). Settings: both partners purified.
T1 construct: Elongation factor Tu (tufA), S. Typhimurium strain 14028S, gene amplified from the genomic DNA; The methods sentence on vectors (pSUMO3 and pQE80, 'respectively') leaves open which vector was used; probably pQE80 with a C-terminal 6xHis; also called tufA; source: E. coli BL21, purified (Ni-NTA); biotinylated, PD-10 column; not shown: His6, C-terminal, kept
T1 sequence (P0A1H5 whole entry): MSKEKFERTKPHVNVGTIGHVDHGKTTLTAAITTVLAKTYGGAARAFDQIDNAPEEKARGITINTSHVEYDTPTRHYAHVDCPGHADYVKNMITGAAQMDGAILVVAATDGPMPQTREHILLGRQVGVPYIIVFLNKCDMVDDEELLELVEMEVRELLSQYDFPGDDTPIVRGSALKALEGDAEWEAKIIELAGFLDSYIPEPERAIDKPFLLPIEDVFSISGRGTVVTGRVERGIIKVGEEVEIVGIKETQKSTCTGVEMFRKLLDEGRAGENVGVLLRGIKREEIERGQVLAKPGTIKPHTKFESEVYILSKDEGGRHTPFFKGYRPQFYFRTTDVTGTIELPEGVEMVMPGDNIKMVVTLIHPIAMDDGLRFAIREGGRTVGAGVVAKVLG
Binder B1 has a Kd of 740 nM. B2 was tested, and the Kd was 1310 nM. With B3 the Kd was 1810 nM. B4 showed a Kd of 2690 nM. With B5 the Kd was 1520 nM.
